From patent US20160039936A1, “FIBROBLAST GROWTH FACTOR RECEPTOR INHIBITION FOR THE TREATMENT OF DISEASE” (UNIVERSITY OF MIAMI, priority 2011, published 2016)

B1: FGF2: recombinant mouse FGF2 (Ala11-Ser154) (R&D Systems) (protein)
chain: ALPEDGGAAFPPGHFKDPKRLYCKNGGFFLRIHPDGRVDGVREKSDPHVKLQLQAEERGVVSIKGVCANRYLAMKEDGRLLASKCVTEECFFFERLESNNYNTYRSRKYSSWYVALKRTGQYKLGSKTGPGQKAILFLPMSAKS
B2: FGF23: recombinant mouse FGF23, 6His-tagged Tyr25-Val251 (Arg179Gln) (R&D Systems) (protein)
chain: YPDTSPLLGSNWGSLTHLYTATARTSYHLQIHRDGHVDGTPHQTIYSALMITSEDAGSVVITGAMTRRFLCMDLHGNIFGSLHFSPENCKFRQWTLENGYDVYLSQKHHYLVSLGRAKRIFQPGTNPPPFSQFLARRNEVPLLHFYTVRPRRHTQSAEDPPERDPLNVLKPRPRATPVPVSCSRELPSAEEGGPAASDPLGVLRRGRGDARGGAGGADRCRPFPRFV
modifications: left off: small tags and cut ends

Tests used:
FGFR = conditions: Mohammadi et al. 1998; Grand et al. 2004; cited from earlier work
isolated NRVM = experiment: Ras/MAPK signaling (phospho-FRS2α, phospho-ERK1/2) Western blot in NRVM; assay type: cell-based, rat; conditions: 30 minutes, FGF alone
Method: HEK293 cells, NRVM or NMVM were treated with growth factors for 30 minutes to analyze activation of signal transduction mediators, or for 48 hours to analyze expression levels of hypertrophic marker proteins. Cells were scraped from 6-well plates using 500 μl CHAPS extraction buffer (20 mM Tris-HCl pH7.5, 500 mM NaCl, 0.5% CHAPS, protease inhibitor cocktail (Roche), protein phosphatase inhibitors [Sigma-Aldrich]) and incubated on ice for 30 minutes. The cell lysate was centrifuged at 14,000 rpm and 4° C. for 30 minutes, and the supernatant boiled in sample buffer and analyzed by SDS-PAGE and immunoblotting. For protein extraction from mouse hearts, tissue was isolated, minced and homogenized in RIPA extraction buffer (50 mM Tris-HCl pH 7.5, 200 mM NaCl, 1% Triton X-100, 0.25% DOC, 1 mM EDTA, 1 mM EGTA, protease and phosphatase inhibitors) at 1:10 (w:v), and protein lysates were prepared as described above. […]

HEK293 cells [1] = experiment: FGF-FGFR-dependent signaling in HEK293 cells (Western blot, immunoprecipitation); assay type: cell-based; conditions: for phosphorylated PLCγ levels / phosphorylation of FRS2γ (FGF2: FRS2γ and ERK1/2): HEK293, untransfected, 30 minutes
Method: HEK293 cells were grown in 6-well plates or 10 cm-culture dishes and transiently transfected with FuGene 6 (Roche) according to the manufacturer's protocol. After 36 hours, cells were serum-starved for 12-16 hours followed by treatment with FGF23 or FGF2 at 25 ng/ml for 15 or 30 minutes.
HEK293 cells, NRVM or NMVM were treated with growth factors for 30 minutes to analyze activation of signal transduction mediators, or for 48 hours to analyze expression levels of hypertrophic marker proteins. Cells were scraped from 6-well plates using 500 μl CHAPS extraction buffer (20 mM Tris-HCl pH7.5, 500 mM NaCl, 0.5% CHAPS, protease inhibitor cocktail (Roche), protein phosphatase inhibitors [Sigma-Aldrich]) and incubated on ice for 30 minutes. The cell lysate was centrifuged at 14,000 rpm and 4° C. for 30 minutes, and the supernatant boiled in sample buffer and analyzed by SDS-PAGE and immunoblotting. For protein extraction from mouse hearts, tissue was isolated, minced and homogenized in RIPA extraction buffer (50 mM Tris-HCl pH 7.5, 200 mM NaCl, 1% Triton X-100, 0.25% DOC, 1 mM EDTA, 1 mM EGTA, protease and phosphatase inhibitors) at 1:10 (w:v), and protein lysates were prepared as described above.
Antibodies to β-MHC (NOQ7.5.4D; Sigma-Aldrich; 1:1,000), RCAN1 (rabbit polyclonal, provided by Timothy McKinsey, University of Colorado, Denver, Colo. (Harrison et al., 2004); 1:1,000), FGFR4 (C-16; Santa Cruz; 1:1,000), total and phospho-ERK1/2 (Cell Signaling; 1:1,000), total and phospho-FRS2α (Santa Cruz 1:1,000; Cell Signaling; 1:1,000), total and phospho-PLCγ (Cell Signaling; 1:1,000), FLAG (M5, Sigma-Aldrich; 1:10,000), V5 (Sigma-Aldrich; 1:10,000) and GAPDH (Abcam; 1:10,000) were used as primary antibodies in 5% milk in TBST (RCAN1, FGFR4, FLAG, V5), 5% BSA in TBST (phospho-FRS2α) or 1.5% FBS in TBS (β-MHC, total and phospho-ERK1/2, total FRS2α, total and phospho-PLCγ, GAPDH) for 1-2 hours. Horseradish peroxidase-conjugated goat-anti-mouse and goat-anti-rabbit (Promega; 1:10,000) were secondary antibodies.
HEK293 cells in 10 cm-dishes were treated with growth factors for 30 minutes, cells were scraped using 1 ml IP buffer (50 mM Tris-HCl pH7.5, 150 mM NaCl, 5 mM MgCl2, 2 mM EGTA, 1% Triton X-100, 5% Glycerol, protease and phosphatase inhibitors), and protein lysates were prepared as described above. V5-tagged proteins were immunoprecipitated using 25 μl of anti-V5 agarose beads (Sigma-Aldrich). After 5 washes in IP buffer, proteins were eluted in 100 μl of sample buffer and analyzed by SDS-PAGE and immunoblotting. For endogenous immunoprecipitation studies from NRVM, cells in 10cm-dishes were treated with growth factors for 30 minutes. Some cells were pre-treated with FGFR4 blocking antibody at 10 μg/ml for 1 hour (human monoclonal, U3-11; U3Pharma). Cells were scraped in 1 ml RIPA buffer, and protein lysates were incubated with 2 μg of anti-FGFR4 (C-16; Santa Cruz) or anti-GFP (Clonetech) as negative control at 4° C. under rotation overnight. We added 50 μl of a 1:1 mix of Protein A on sepharose beads and Protein G on agarose beads that were previously equilibrated in RIPA buffer, followed by incubation at 4° C. under rotation for 2 hours, protein elution in sample buffer, and SDS-PAGE and Western blot analyses.

HEK293 cells [2] = experiment: as above; assay type: cell-based; conditions: HEK293 expressing wild-type FGFR4, within 6 hours

Row | Molecule | phosphorylation of FGFR3 and FGFR4 (FGFR) | levels of phosphorylated FRS2α and ERK1/2 (isolated NRVM) | FGF2-mediated FRS2α/Ras/MAPK signaling (HEK293 cells [1]; HEK293, presence or absence of α-klotho or β-klotho) | phosphorylated PLCγ levels (HEK293 cells [1]) | phosphorylation of FRS2γ (FGF2: FRS2γ and ERK1/2) (HEK293 cells [1]) | RCAN1-4 levels (HEK293 cells [2]) | phospho-PLCγ levels (HEK293 cells [1]; HEK293 overexpressing FGFR4Arg385, 30 minutes) | ERK1/2 phosphorylation (HEK293 cells [1]; HEK293 overexpressing V5-tagged FGFR4) | phosphorylation of PLCγ (HEK293 cells [1]; HEK293 overexpressing ectopic β-klotho) | FGFR isoform binding to PLCγ (co-precipitation) (HEK293 cells [1]; HEK293 transfected with V5-tagged FGFR1-4, 30 minutes) | levels of phospho-ERK and Egr-1 (HEK293 cells [1]; HEK293 transiently expressing FLAG-tagged klotho) | activation of PLCγ (HEK293 cells [1]; HEK293 with ectopic α-klotho) | phosphorylation of FRS2α and ERK1/2 (HEK293 cells [1]; HEK293 with ectopic α-klotho)
1 | CCN(CC)CCCCNc1ncc2cc(-c3cc(OC)cc(OC)c3)c(NC(=O)NC(C)(C)C)nc2n1 [PD173074] | inhibits |  |  |  |  |  |  |  |  |  |  |  | 
2 | B1 |  | increased | unaffected | had no effect | increased |  |  |  |  |  |  |  | 
3 | B2 |  |  |  | increased | did not induce | increases | further increased | does not increase | induced phosphorylation | only FGFR4 bound PLCγ | increased levels | did not activate | increased
